Results on one molecule are retold here after patent publication US8618251.

The target in assay [1] is soluble hFcγRIIA^131H (human) (UniProt P12318). Nature of the assay: SPR Biacore T100, steady state, antibody immobilised.
The target of assay [2] is soluble hFcγRIIA^131R (human) (UniProt P12318). The description is as above.
The target in assay [3] is soluble hFcγRIIB (human) (UniProt P31994). The assay is described as above.
Assay [4] has as its target soluble hFcγRIIA^131H (human) (UniProt P12318). Put plainly: SPR Biacore T100; reference of the fold not given.
The target of assay [5] is soluble hFcγRIIA^131R (human) (UniProt P12318). Nature of the assay: SPR Biacore T100; reference of the fold not given.
In assay [6] the target is soluble hFcγRIIB (human) (UniProt P31994). Nature of the assay: SPR Biacore T100; reference of the fold not given. (In general: In SPR one partner is held on a chip, and binding of the other changes the refractive index at the surface.)

soluble hFcγRIIA^131H (human), sequence (P12318 34-217): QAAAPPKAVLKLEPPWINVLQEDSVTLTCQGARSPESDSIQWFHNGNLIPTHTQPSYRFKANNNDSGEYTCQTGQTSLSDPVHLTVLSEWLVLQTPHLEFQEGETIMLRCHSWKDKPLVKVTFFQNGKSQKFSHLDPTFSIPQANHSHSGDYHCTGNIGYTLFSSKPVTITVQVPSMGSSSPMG
soluble hFcγRIIB (human), sequence (P31994 43-217 limits assumed): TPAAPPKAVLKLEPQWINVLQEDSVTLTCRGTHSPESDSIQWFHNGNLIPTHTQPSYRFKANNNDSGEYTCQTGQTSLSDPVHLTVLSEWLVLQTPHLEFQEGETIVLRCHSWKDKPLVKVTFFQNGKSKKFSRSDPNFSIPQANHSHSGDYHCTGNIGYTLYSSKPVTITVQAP
soluble hFcγRIIA^131R (human), sequence (P12318 34-217 H167R): as the sequence (P12318 34-217) above, with H134R counted along it

B1: 4-4-20 hIgG1 Fc mutant L163P-S183G-K222E-G236A-N276D-S298G-T299A-D312G (antibody, part only; not given: 4-4-20 variable domains, not shown: another chain or arm of the molecule)
constant: ASTKGPSVFPLAPSSKSTSGGTAALGCLVKDYFPEPVTVSWNSGAPTSGVHTFPAVLQSSGLYSLGSVVTVPSSSLGTQTYICNVNHKPSNTKVDKRVEPKSCDETHTCPPCPAPELLAGPSVFLFPPKPKDTLMISRTPEVTCVVVDVSHEDPEVKFDWYVDGVEVHNAKTKPREEQYNGAYRVVSVLTVLHQGWLNGKEYKCKVSNKALPAPIEKTISKAKGQPREPQVYTLPPSRDELTKNQVSLTCLVKGFYPSDIAVEWESNGQPENNYKTTPPVLDSDGSFFLYSKLTVDKSRWQQGNVFSCSVMHEALHNHYTQKSLSLSPGK
Take B1: the Kd – broadly, the free concentration of one partner at which half of the binding sites on the other are occupied at equilibrium, for simple one-to-one binding – stood at 1340 nM in assay [1], 781 nM in assay [2] and 8480 nM with soluble hFcγRIIB (human) [3]. Further, the Fold change in affinity in assay [4] turned out to be 2.6 fold; in assay [5], 7.4 fold; with soluble hFcγRIIB (human) [6], 1.3 fold.
